Assay results as given in patent US20200199241A1 (Chugai, published 2020).
Positions count from the first letter of the chain named. Names and notes keep the numbering of the source. Where two headings read alike, the source gives them in different places.

Experiments:
human FcγRIa = biological target: T1, human FcγRIa (human, UniProt P12314 16-292, limits assumed); assay: SPR, pH 7.4, antibody captured by Protein L
T1 construct: also called FcgRIa; hFcgRIa

human FcγRIIa(R) = biological target: T2, human FcγRIIa(R) (human, UniProt P12318 36-217); assay: SPR, pH 7.4, antibody captured by Protein L
T2 construct: also called FcgRIIaR; hFcgRIIa(R)
T2 chain: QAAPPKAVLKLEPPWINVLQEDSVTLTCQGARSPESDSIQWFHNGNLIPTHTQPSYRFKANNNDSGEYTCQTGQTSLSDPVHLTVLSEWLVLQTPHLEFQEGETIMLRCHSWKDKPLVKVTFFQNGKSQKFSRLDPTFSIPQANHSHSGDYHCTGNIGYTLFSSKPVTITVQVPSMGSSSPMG

human FcγRIIa(H) = biological target: T3, human FcγRIIa(H) (human, UniProt P12318 36-217); assay: SPR, pH 7.4, antibody captured by Protein L
T3 construct: also called FcgRIIaH; hFcgRIIa(H)
T3 sequence: T2 chain with R133H

human FcγRIIb [1] = biological target: T4, human FcγRIIb (human, UniProt P31994 43-217, limits assumed); assay: SPR, pH 7.4, antibody captured by Protein L
T4 construct: also called FcgRIIb; hFcgRIIb
T4 sequence: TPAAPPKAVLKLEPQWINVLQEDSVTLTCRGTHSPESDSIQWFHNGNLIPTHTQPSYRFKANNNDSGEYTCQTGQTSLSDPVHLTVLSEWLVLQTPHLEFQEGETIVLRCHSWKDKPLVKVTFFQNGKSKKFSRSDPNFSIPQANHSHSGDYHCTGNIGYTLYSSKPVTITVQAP

human FcγRIIIa(V) = biological target: T5, human FcγRIIIa(V) (human, UniProt P08637 17-208, limits assumed); assay: SPR, pH 7.4, antibody captured by Protein L
T5 construct: also called hFcgRIIIa(V); FcγRIIIa allotype V158

[2] = biological target: T6, human FcRn (complex with human β2-microglobulin) (human, UniProt P61769 21-119, limits assumed); assay: SPR, pH 7.0, antibody captured by Protein L, hFcRn analyte
T6 construct: soluble human FcRn complexed with β2-microglobulin was used; also called hFcRn

[3] = biological target: T7, human FcRn (soluble human FcRn complexed with β2-microglobulin) (human, UniProt P61769 21-119, limits assumed); assay: SPR, antibody captured by Protein L, human FcRn as analyte, pH 7.0, 25 C
T7 construct: also called hFcRn

mouse FcγRI = biological target: T8, mouse FcγRI (mouse, UniProt P26151 25-297); assay: SPR, antibody captured by Protein L, mouse FcγR as analyte, pH 7.4, 25 C
T8 construct: bought; also called mFcgRI; mFcgR 1
T8 sequence (looked up): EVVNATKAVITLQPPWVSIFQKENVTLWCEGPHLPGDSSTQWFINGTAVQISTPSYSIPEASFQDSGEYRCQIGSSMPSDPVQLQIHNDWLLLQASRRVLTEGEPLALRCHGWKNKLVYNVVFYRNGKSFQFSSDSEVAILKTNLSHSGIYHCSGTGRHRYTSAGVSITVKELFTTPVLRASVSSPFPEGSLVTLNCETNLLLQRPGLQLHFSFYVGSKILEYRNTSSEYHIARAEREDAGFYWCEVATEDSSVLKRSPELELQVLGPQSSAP

mouse FcγRIIb = biological target: T9, mouse FcγRIIb (mouse, UniProt P08101 30-207, limits assumed); assay: as above
T9 construct: bought; also called mFcgRIIb; mFcgR IIb
T9 sequence (looked up): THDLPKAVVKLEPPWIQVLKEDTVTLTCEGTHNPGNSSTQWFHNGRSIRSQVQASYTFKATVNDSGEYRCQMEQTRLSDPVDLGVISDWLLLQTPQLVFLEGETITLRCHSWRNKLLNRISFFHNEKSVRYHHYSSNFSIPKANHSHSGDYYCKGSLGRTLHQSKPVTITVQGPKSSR

mouse FcγRIII = biological target: T10, mouse FcγRIII (mouse, UniProt P08508 31-215); assay: as above
T10 construct: bought; also called mFcgRIII; mFcgR III
T10 sequence (looked up): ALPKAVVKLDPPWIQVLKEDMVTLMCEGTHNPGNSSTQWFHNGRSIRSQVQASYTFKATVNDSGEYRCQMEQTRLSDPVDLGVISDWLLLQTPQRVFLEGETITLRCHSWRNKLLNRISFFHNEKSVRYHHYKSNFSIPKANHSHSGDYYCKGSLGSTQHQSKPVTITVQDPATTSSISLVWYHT

mouse FcγRIV = biological target: T11, mouse FcγRIV (mouse, UniProt A0A0B4J1G0 21-203); assay: as above
T11 construct: bought; also called mFcgRIV; mFcgR IV; the vendor's purification tag not given
T11 sequence: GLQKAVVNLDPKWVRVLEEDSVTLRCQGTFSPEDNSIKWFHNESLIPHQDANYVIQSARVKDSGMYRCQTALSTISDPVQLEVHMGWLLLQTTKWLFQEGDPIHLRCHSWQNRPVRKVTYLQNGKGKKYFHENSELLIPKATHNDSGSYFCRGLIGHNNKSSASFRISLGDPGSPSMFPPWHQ

human FcγRIIb [4] = biological target: T12, human FcγRIIb (human, UniProt P31994 43-217, limits assumed); assay: SPR (Biacore); ratio against IgG1
T12 construct: also called FcγIIB
T12 sequence: T4 sequence

human FcγRIIb [5] = biological target: T12, human FcγRIIb; assay: SPR (Biacore); ratio against IgG1; remark: listed apart in the source
human FcγRIIb [6] = biological target: T12, human FcγRIIb; assay: SPR (Biacore), antibody captured, FcγR as analyte
human FcγRIIb [7] = biological target: T12, human FcγRIIb; assay: SPR (Biacore), antibody captured, FcγR as analyte; remark: listed apart in the source

T6 sequence (chain, as listed by the source limits assumed, chain 1 of 2): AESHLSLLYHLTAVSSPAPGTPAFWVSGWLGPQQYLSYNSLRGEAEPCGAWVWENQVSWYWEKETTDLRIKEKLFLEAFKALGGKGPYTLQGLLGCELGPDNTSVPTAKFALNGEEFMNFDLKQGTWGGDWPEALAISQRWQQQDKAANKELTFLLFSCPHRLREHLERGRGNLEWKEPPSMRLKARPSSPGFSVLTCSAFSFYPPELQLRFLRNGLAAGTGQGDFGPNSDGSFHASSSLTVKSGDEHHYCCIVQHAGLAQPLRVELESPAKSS
T6 sequence (P61769 21-119 limits assumed, chain 2 of 2): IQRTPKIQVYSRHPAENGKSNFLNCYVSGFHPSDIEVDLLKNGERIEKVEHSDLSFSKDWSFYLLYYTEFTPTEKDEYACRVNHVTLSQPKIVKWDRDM
T5 sequence (P08637 other isoform, or with tags, fused parts or gaps limits assumed): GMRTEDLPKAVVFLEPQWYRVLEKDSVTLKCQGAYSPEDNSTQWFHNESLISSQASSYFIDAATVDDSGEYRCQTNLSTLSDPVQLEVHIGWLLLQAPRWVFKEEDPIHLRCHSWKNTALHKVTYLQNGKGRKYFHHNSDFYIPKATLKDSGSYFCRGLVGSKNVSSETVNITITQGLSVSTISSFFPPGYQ
T1 sequence (P12314 16-292 limits assumed): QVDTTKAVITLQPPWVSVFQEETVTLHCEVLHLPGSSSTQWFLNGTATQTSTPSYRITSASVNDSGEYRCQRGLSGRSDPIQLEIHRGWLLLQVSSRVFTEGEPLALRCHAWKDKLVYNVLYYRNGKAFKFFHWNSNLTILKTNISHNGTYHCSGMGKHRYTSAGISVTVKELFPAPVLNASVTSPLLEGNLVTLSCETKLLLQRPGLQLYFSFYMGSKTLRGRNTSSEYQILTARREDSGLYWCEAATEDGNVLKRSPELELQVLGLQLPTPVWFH
T7 sequence (chain, as listed by the source limits assumed, chain 1 of 2): as the sequence (chain, as listed by the source limits assumed, chain 1 of 2) above
T7 sequence (P61769 21-119 limits assumed, chain 2 of 2): as the sequence (P61769 21-119 limits assumed, chain 2 of 2) above

B1: VH3-IgG4-F890/L(WT)-CK (antibody)
heavy: QVQLQESGPGLVKPSETLSLTCAVSGHSISHDHAWSWVRQPPGEGLEWIGFISYSGITNYNPSLQGRVTISRDNSKNTLYLQMNSLRAEDTAVYYCARSLARTTAMDYWGEGTLVTVSSASTKGPSVFPLAPCSRSTSESTAALGCLVKDYFPEPVTVSWNSGALTSGVHTFPAVLQSSGLYSLSSVVTVPSSSLGTKTYTCNVDHKPSNTKVDKRVESKYGPPCPPCPAPEFLGGPSVFLFPPKPKDTLYISRTPEVTCVVVDVSQEDPEVQFNWYVDGVEVHNAKTKPREEQFNSTYRVVSVLTVLHQDWLNGKEYKCKVSNKGLPSSIEKTISKAKGQPREPQVYTLPPSQEEMTKNQVSLTCLVKGFYPSDIAVEWESNGQPENNYKTTPPVLDSDGSFFLYSRLTVDKSRWQEGNVFSCSVMHEALHYHVTQKSLSLSL
light: not shown
notes: M252Y/N434Y/Y436V in VH3-IgG4; copies: 2 + 2
For B1, the binding amount (human FcγRIa) was 367 RU, the binding amount (human FcγRIIa(R)) was 92.8 RU and the binding amount (human FcγRIIa(H)) was 37.5 RU. For the same binder, the binding amount (human FcγRIIb [1]) was 71.8 RU, the binding amount (human FcγRIIIa(V)) was 15.5 RU and the Kd [2] was 140 nM.

B2: VH3-IgG4-F939/L(WT)-CK (antibody)
heavy: B1 heavy with L234R, S238K
light: not shown
notes: L235R/S239K/M252Y/N434Y/Y436V in VH3-IgG4; copies: 2 + 2
In the case of B2, the binding amount (human FcγRIa) is reported as 1.2 RU, the binding amount (human FcγRIIa(R)) is reported as -0.2 RU and the binding amount (human FcγRIIa(H)) is reported as -0.7 RU. For the same binder, the binding amount (human FcγRIIb [1]) was 0.4 RU, the binding amount (human FcγRIIIa(V)) was -0.5 RU and the Kd [2] was 110 nM.

B3: antibody with VH3-IgG1-F157 heavy chain and L(WT)-CK light chain (antibody)
heavy: QVQLQESGPGLVKPSETLSLTCAVSGHSISHDHAWSWVRQPPGEGLEWIGFISYSGITNYNPSLQGRVTISRDNSKNTLYLQMNSLRAEDTAVYYCARSLARTTAMDYWGEGTLVTVSSASTKGPSVFPLAPSSKSTSGGTAALGCLVKDYFPEPVTVSWNSGALTSGVHTFPAVLQSSGLYSLSSVVTVPSSSLGTQTYICNVNHKPSNTKVDKKVEPKSCDKTHTCPPCPAPELLGGPSVFLFPPKPKDTLMISRTAEVTCVVVDVSHEDPEVKFNWYVDGVEVHNAKTKPREEQYNSTYRVVSVLTPLHQDWLNGKEYKCKVSNKALPAPIEKTISKAKGQPREPQVYTLPPSRDELTKNQVSLTCLVKGFYPSDIAVEWESNGQPENNYKTTPPVLDSDGSFFLYSKLTVDKSRWQQGNVFSCSVLHEALHYHYTQKSLSLSP
light: not shown
notes: P257A/V308P/M428L/N434Y; also called 1gG1-F157; copies: 2 + 2
B3 was tested, and the Kd [3] was 150 nM, the “BINDING AMOUNT (RU)” value (mouse FcγRI) was 315 RU and the “BINDING AMOUNT (RU)” value (mouse FcγRIIb) was 129 RU. The “BINDING AMOUNT (RU)” value (mouse FcγRIII) was 276 RU and the “BINDING AMOUNT (RU)” value (mouse FcγRIV) was 243 RU.

B4: antibody with VH3-IgG1-F424 heavy chain and L(WT)-CK light chain (antibody)
heavy: B3 heavy with S241K
light: not shown
notes: S239K/P257A/V308P/M428L/N434Y; copies: 2 + 2
In the case of B4, the Kd [3] is reported as 94 nM, the “BINDING AMOUNT (RU)” value (mouse FcγRIIb) is reported as -2.5 RU and the “BINDING AMOUNT (RU)” value (mouse FcγRIV) is reported as 138 RU.

B5: VH3-IgG2-F939/L(WT)-CK (antibody)
heavy: QVQLQESGPGLVKPSETLSLTCAVSGHSISHDHAWSWVRQPPGEGLEWIGFISYSGITNYNPSLQGRVTISRDNSKNTLYLQMNSLRAEDTAVYYCARSLARTTAMDYWGEGTLVTVSSASTKGPSVFPLAPCSRSTSESTAALGCLVKDYFPEPVTVSWNSGALTSGVHTFPAVLQSSGLYSLSSVVTVPSSNFGTQTYTCNVDHKPSNTKVDKTVERKCCVECPPCPAPPVRGPKVFLFPPKPKDTLYISRTPEVTCVVVDVSHEDPEVQFNWYVDGVEVHNAKTKPREEQFNSTFRVVSVLTVVHQDWLNGKEYKCKVSNKGLPAPIEKTISKTKGQPREPQVYTLPPSREEMTKNQVSLTCLVKGFYPSDIAVEWESNGQPENNYKTTPPMLDSDGSFFLYSKLTVDKSRWQQGNVFSCSVMHEALHYHVTQKSLSLSP
light: not shown
notes: A235R/S239K/M252Y/N434Y/Y436V in VH3-IgG2; copies: 2 + 2
Binder B5 has a binding amount (human FcγRIa) of 1.3 RU, a binding amount (human FcγRIIa(R)) of 1 RU and a binding amount (human FcγRIIa(H)) of 1 RU. The binding amount (human FcγRIIb [1]) was 0.4 RU, the binding amount (human FcγRIIIa(V)) was 1.1 RU and the Kd [2] was 140 nM.

B6: IgG1-v1 (antibody)
heavy: not shown
light: DIQMTQSPSSLSASVGDRVTITCRASQDISSYLNWYQQKPGKAPKLLIYYTSRLHSGVPSRFSGSGSGTDFTFTISSLQPEDIATYYCQQGNTLPYTFGQGTKVEIK
notes: IL6R-G1d with P238D (EU numbering); also called IL6R-G1d-v1
In the case of B6, the “relative KD for FcγRIIb (KD for IgG1/KD for each variant)” value (“relative KD for FcγRIIb” for short) (human FcγRIIb [4]) is reported as 4.8, the “relative KD for FcγRIIb” value (human FcγRIIb [5]) is reported as 4.8 and the Kd (human FcγRIIb [6]) is reported as 1100 nM. The Kd (human FcγRIIb [7]) was 1100 nM.

B7: IgG1-v3 (antibody)
heavy: not shown
light: B6 light
notes: IL6R-G1d with S267E/L328F (EU numbering); also called S267E/L328F
For B7, the “relative KD for FcγRIIb” value (human FcγRIIb [5]) was 408 and the Kd (human FcγRIIb [7]) was 13 nM.

B8: IgG1-v5 (antibody)
heavy: B3 heavy with P240D, A259P, S269E, P310V, L330F, L430M, Y436N
light: B6 light
notes: IL6R-G1d with P238D/S267E/L328F (EU numbering); The L chain is not restated for v5; also called IL6R-G1d-v5; P238D/S267E/L328F
For B8, the “relative KD for FcγRIIb” value (human FcγRIIb [5]) was 12 and the Kd (human FcγRIIb [7]) was 450 nM.

B9: IgG1-v4 (antibody)
heavy: not shown
light: B6 light
notes: IL6R-G1d with P238D/L328E (EU numbering); also called IL6R-G1d-v4; P238D/L328E
For B9, the “relative KD for FcγRIIb” value (human FcγRIIb [4]) was 0.47 and the Kd (human FcγRIIb [6]) was 11000 nM.
